From PMC10538664 (PLOS Pathogens, 2023) come the findings set out here.

This assay addresses prototype SARS-CoV-2 tandem RBD homotrimer (PPP) (SARS-CoV-2, UniProt P0DTC2). The assay can be described thus: cryo-EM structure. As to conditions: both partners purified.

B1: fragment antigen binding (Fab) of mAb CB6 (Fab, V domains shown)
VH: EVQLVESGGGLVQPGGSLRLSCAASGFTVSSNYMSWVRQAPGKGLEWVSVIYSGGSTFYADSVKGRFTISRDNSMNTLFLQMNSLRAEDTAVYYCARVLPMYGDYLDYWGQGTLVTVSS
VL: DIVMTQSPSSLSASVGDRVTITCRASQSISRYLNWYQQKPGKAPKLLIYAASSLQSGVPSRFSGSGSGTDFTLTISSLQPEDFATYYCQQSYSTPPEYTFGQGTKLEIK
For B1, the “stoichiometry N” value is 3.
